Experimental data taken from paper PMC5840378.

Target: T1, 14-3-3ε full length (14-3-3ε FL), recombinant, P62258
T1 chain: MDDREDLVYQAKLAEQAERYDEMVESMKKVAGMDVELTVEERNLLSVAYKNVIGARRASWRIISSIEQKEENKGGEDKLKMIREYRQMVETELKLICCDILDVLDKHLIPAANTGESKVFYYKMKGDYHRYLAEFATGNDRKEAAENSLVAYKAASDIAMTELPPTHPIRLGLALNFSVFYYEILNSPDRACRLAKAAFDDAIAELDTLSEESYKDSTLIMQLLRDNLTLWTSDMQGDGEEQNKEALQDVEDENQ
Experiment: AUC + other: dynamic light scattering; sedimentation velocity, 20 °C, 45,000 r.p.m., 37 μM, 5 mM sodium phosphate pH 6.3; DLS at 0.1 mg/mL, 25 °C, same buffer
Settings: remark: other sources report otherwise

B1: 14-3-3ε full length (14-3-3ε FL), recombinant, P62258 1-255 (natural protein)
chain: MDDREDLVYQAKLAEQAERYDEMVESMKKVAGMDVELTVEERNLLSVAYKNVIGARRASWRIISSIEQKEENKGGEDKLKMIREYRQMVETELKLICCDILDVLDKHLIPAANTGESKVFYYKMKGDYHRYLAEFATGNDRKEAAENSLVAYKAASDIAMTELPPTHPIRLGLALNFSVFYYEILNSPDRACRLAKAAFDDAIAELDTLSEESYKDSTLIMQLLRDNLTLWTSDMQGDGEEQNKEALQDVEDENQ
stoichiometry N: 2
